From the supplement of paper PMC10126150
± gives the standard deviation of the averaged measurements.

Tested on: ATP
Test: switch fluorescence ratio, 500 uM ATP over buffer (Cy3 cluster intensity, sum of 5 cycles each) (fold (ratio)); higher = stronger signal-on switching upon ATP binding; sequences stand for … in TCGTCGGCAGCGTCAGATGTGTATAAGAGACAGTTTTTTTTTTTTTTTTTTTTTTTTT…TC
Conditions: aptamer strand: ATP DNA aptamer (quencher-CACCTGGGGGAGTATTGCGGAGGAAGG + anchor), 100 nM annealed; ATP concentration: 500 uM
Procedure, shortened: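 Clusters with intensities outside 100-1000 RFU were excluded. The remaining Cy3-labelled switching-strand clusters on a modified Illumina MiSeq flow-cell had been annealed to 100 nM quencher-labelled ATP aptamer and imaged in selection buffer, then after 15 min with 500 uM ATP at 22 °C, for five cycles separated by NaOH stripping and re-annealing. The fluorescence ratio, averaged per switch-domain sequence, is each cluster's summed target-cycle Cy3 intensity over its summed buffer-cycle Cy3 intensity.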
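Further: ATP exposure 15 min at 22 °C before imaging.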

Sequence	switch fluorescence ratio
GAGGTGAAGG	1.04 ± 0.055
ACTCGGGTAA	1 ± 0.017
TCTATGCTTC	1.9 ± 1.1
CTCTTTGCC	1.17 ± 0.27
TTTGCAACGA	1.25 ± 0.31
GAGGGGCACG	0.935 ± 0.1
GGGGAAGAAC	1.14 ± 0.18
TTGTTAATCG	0.984 ± 0.011
AGAATCTTGC	1.167 ± 0.0026
GTGTCCGTTT	1.05 ± 0.039
ATCAAAATTG	1.01 ± 0.027
GACGTTTTAG	0.993 ± 0.052
GTTTGAGGGG	0.992 ± 0.012
GGCGCGGGGA	1.02 ± 0.045
TAAGTTGATC	0.989 ± 0.053
ATAGGTGTTG	1.02 ± 0.025
ATGAATAATG	1.01 ± 0.026
AAGTGACCTT	1.135 ± 0.0039
GATATGTTCC	1.13 ± 0.084
CTGGTATTTG	1.05 ± 0.041
AGGTGTTGGG	1.01 ± 0.035
CGGCGAATAT	1.024 ± 0.0011
GATGTGAGCC	1.01 ± 0.018
CATATGGGCG	1.03 ± 0.064
ATAGCTGATT	0.983 ± 0.034
GACGCACTAA	2.76 ± 0.44

Sequence	switch fluorescence ratio
CTCGCTCGTG	1.03 ± 0.016
CAGGAGGCGG	1.02 ± 0.037
TCTTGGCACA	1.036 ± 0.0061
GTATAAAACT	0.9986 ± 0.0087
CGTTCGCTTA	1.96 ± 0.037
GTGGAGGGGG	0.9841 ± 0.0047
TGTAAGTAGG	1.04 ± 0.025
TAGGCGTCTG	1 ± 0.012
TAGTACGGAT	1.01 ± 0.007
TAATCGGGGT	0.978 ± 0.038
TGGCAACACC	1.94 ± 1.2
TAATGGGGAC	0.967 ± 0.03
TTTTACGCT	1.03 ± 0.06
TGCTGGGGGA	1.01 ± 0.025
GGGGGGAATA	1 ± 0.047
TTAAGGTGAG	1.02 ± 0.021
TGGTAGAGTT	1 ± 0.016
GTTTCTTTCG	1.01 ± 0.067
CTCAAAAGA	1.11 ± 0.077
AATATAGCGT	0.969 ± 0.021
AATTAGACAG	0.9912 ± 0.0047
CGGTTTATGC	1.09 ± 0.052
AAAGATTCGA	0.996 ± 0.01
TCAAAATGTG	0.958 ± 0.015
CGATCACCTG	1.02 ± 0.063
CAGAAGGTTT	1 ± 0.022

Sequence	switch fluorescence ratio
CTTGTGGTGG	1.006 ± 0.0089
CGAAGTACAT	1.16 ± 0.0019
GATGAAAGGC	1.046 ± 0.0017
TAAGCTTTGT	0.9902 ± 0.0025
TGAATAAAGC	1.05 ± 0.02
AGGGGCTAGG	0.983 ± 0.033
TACTGTTATG	1.1 ± 0.099
CGAAGGGGGA	0.995 ± 0.021
GCGCTAGGTG	2.19 ± 0.12
TGGTTAATGG	0.989 ± 0.038
GGTTTAATTC	1.01 ± 0.012
TATGCTTATA	0.98 ± 0.014
TTCATGGGAG	0.99 ± 0.022
TATAGTGGGA	1 ± 0.032
TTATCAGTGT	0.972 ± 0.063
TTGAATCAAG	1.01 ± 0.041
TGTTGCGGGT	1.01 ± 0.042
CGCGTTGTTG	1.03 ± 0.012
ATGTGGGCTG	0.979 ± 0.045
ATTAATTTTG	0.992 ± 0.023
TTTTTCCCGC	1.07 ± 0.053
AGCTGCACAT	1.048 ± 0.0022
TGTGGGTATA	0.995 ± 0.02
TGTTTGGGGC	0.989 ± 0.019
CCGTGTGGGT	1.01 ± 0.018
GTTTATTAAA	1.04 ± 0.012

Sequence	switch fluorescence ratio
TATGTACACT	1.06 ± 0.053
CGGTATTTAA	1.02 ± 0.046
CGTAGACGGT	0.9592 ± 0.0063
AGTACTAGGA	0.993 ± 0.011
ATTGTAGTTT	1 ± 0.066
AGTGTCGCCT	0.985 ± 0.019
AATCGTATCC	1.01 ± 0.029
GGTTGGAAAT	0.99 ± 0.06
CAGGTAGATG	0.9959 ± 0.0086
AGTTAGCAGA	0.995 ± 0.026
GATGGACCTT	1.08 ± 0.11
GGGGGCCATC	1.003 ± 0.0017
GATAATTTGT	0.973 ± 0.065
CTCGGGGAGT	1.012 ± 0.0064
ACGTTTGGCT	0.954 ± 0.028
AGAAGGGTGT	1.02 ± 0.017
TTCCTGTCGT	1.004 ± 0.0021
ACACGAGGCT	1.04 ± 0.029
ATCGTGAGGG	1 ± 0.053
TTTATAATAG	0.991 ± 0.025
GGATGGCTCG	0.993 ± 0.051
CATTTTGGGA	0.979 ± 0.03
ATGGGGTGTT	1 ± 0.024
CCCGGGTAGT	1.12 ± 0.12
GGGAAAGCGC	1.03 ± 0.064
TTTGAATCGG	0.97 ± 0.027

Sequence	switch fluorescence ratio
TTTACTTAGC	1.04 ± 0.026
TGCTGGTTGG	0.998 ± 0.026
TTTTTGTAGA	1.01 ± 0.022
GTTTTAGGGT	1 ± 0.031
ACACACCAGG	2.98 ± 0.18
GGGTCTTTTT	1.02 ± 0.055
CGGGTGGGTA	1 ± 0.023
TAGAATTAGG	0.987 ± 0.037
TTTATAATAT	1.03 ± 0.015
ATCTGGTATG	0.957 ± 0.037
GGGCAAAATC	1.04 ± 0.018
AGGAATACTT	1.07 ± 0.043
AGGCCGTTCG	0.9976 ± 0.0073
GGTACGGGGA	1.03 ± 0.051
AAGGGCCGTG	1.02 ± 0.04
CAGCTGGTAT	0.9992 ± 0.0011
TGATTAGAGG	1.02 ± 0.1
GCGTTAAGGG	0.964 ± 0.053
AAGTCTGTTA	0.994 ± 0.032
TCATCTACTT	1.02 ± 0.041
GATTTAGGTG	1.12 ± 0.0065
GATTTCCCCG	1.18 ± 0.028
GGGATTGTT	0.996 ± 0.033
GATGGGGTCC	0.949 ± 0.015
TCTTTTTATA	1.04 ± 0.017
GGGATTGTCT	0.948 ± 0.033

Sequence	switch fluorescence ratio
AGTATGGGTA	1 ± 0.018
AGACAGGGG	1.04 ± 0.017
AGTGTTAGTG	0.997 ± 0.037
TGTGGGATAT	1.05 ± 0.068
AAGGGTTAAG	0.9975 ± 0.006
GTTTAGAGTC	1 ± 0.037
ATAGGGTGTG	1.02 ± 0.076
CCCGGGGGCA	1.21 ± 0.25
TGCGGGGTCG	1.01 ± 0.016
CGGGTTCTGG	0.989 ± 0.014
TTTGGACTAT	1.012 ± 0.0038
GATGGTTAAC	1.01 ± 0.0045
CAGGTGTGGG	1.2 ± 0.1
GATTGGCAGC	1.015 ± 0.0035
TTTTTTAGTC	1 ± 0.04
GATCCATGCT	0.9536 ± 0.0019
TGTTGCATCG	1 ± 0.019
CTTTTATAGT	0.984 ± 0.02
CAATTGTACG	1 ± 0.011
TGTTTGAATG	0.9585 ± 0.0029
TTTTGCGGTG	1.01 ± 0.017
AGCTGATGTG	1.008 ± 0.0051
GTTTGTTGAG	0.979 ± 0.025
